In the DeepSol protein solubility set:

Test: soluble on expression in E. coli; label from the status in PepcDB or PDB records

| Sequence | soluble on expression in E. coli |
| --- | --- |
| MGSDKIHHHHHHVERIETHDATPGVVVEALTRGPGAICIRGLFSESQIAEARRVVMAHSEDRAQTVTHFQGQAAEEQRLHLQRRVWNLLAKGGVFSEMSEQPVIVGAMRRFLGDDFIMGSIAANRILPGGPGQEPHIDYPYWDYHMPDTFPLGINTSFALNAQVTIPLDPFTAETGATAFVPHTQHELRYPAEGDRFFERCQRMTAEPGDAIVFFGATWHCAMPNRSTQDRSAVLIQYLPKFVKPMEDLRAMVGEDFVRRASPTMRQLLGLNFPYPQNLDEIAVATNAEGRKNAMR | not soluble |
| MFSAPLENTMLCNMGGSHEKARARENERMRERERGKEQRTYFATGSLARCQAGSVRRAPGTRRHPGSSTVQGFGTVVSLEANKEMKKEETFFFASLFLYRLGGPLTGTVGYANKTTGR | not soluble |
| MPNKISGSIAPSASSDAMKSADCAENIKEEVVSKHVHQAVPAELADLPSRQPPRSKTALYQVIQKFRDPLPLPPPPTSHPVLAYDRDLGSSDNFRSSDEFDLPESLNPTGWKNLHVSGSGSIASIGQITRLRPSKERPVVVLDAREESHAIVGGYPGTWRTPNNWGNAGKSRDEALADEQQRIQALKSQETVHIFHRKDVKSEARNPRGATLSKPLIFSEEELVRAAGAKYVRLTVTDHLSPRADDIDAFIAMEREMAHDERLHVHCGMGLGRTTIFIVMHDILRNAAMLSFDDIIERQRKFNPGRSLDNNKDVSDKGRSEFRNERSEFLPLFYEYAKQNPKGQPLLWSEWLDHNA | not soluble |
| MGSDKIHHHHHHMSSLTKMLLILDLFSVDKPIWSADEIIQYCGHSRPTGYRYVKELCDAGLLRRAEGGYSLGPRVIELDYYIRQCDPLLIACRPVMVRVAQESGCDVLLASMYGTKIMAVHQELAHETGQIAFGRGRPMPLFRGGGSKVLLASMTASQLKKLYDRYGAEIAEAGLGATWADFRKQMLKYRNDGHVVSIGELDPNAAGVAIPIPVGDALDPAALVILTTRSRFDLMEKALLVDMAMNAARQIETSMRGNREVQAKALLLS | not soluble |
| MNELKNAQTASAHRILLPLLRCIASGAADVTEEGNEIVLRRKRPGQAVQRFPTETVRLAVSSGLLEWRQNSLSAAPPLASYLKRATAKDRDEVFQEQHRDIQTVVVEIDETKQPARRNLNTAPLTSLSRLKERDGSAFFPEDALAAGERLAADFHRGHLNPRVTATWEPRIASRGKGEAGGALDLTEAAMAARARFSRAADAMGPELSGVAIDICCFEKGLETVERERLWPARSAKLLLRAALLSLARHYAPPVPPARGKDRPKERHWGDADYRPSLR | not soluble |
| MTSLIGTHSGKFHCDEAFACFMLKQLPQFKDHSILRTRDAAQLEKCDIIVDVGGIFDHSKQRYDHHQRGFTDTMRTLEKLNFDTKLSSAGLVYAHYGREVINQILGGNVSSSMIDLFYHRLYEQFVESIDAIDNGISQYDGVPRYHSSGNLSSRTGQFNSHWNEPENDADERFQQAMQFIGEEFSRSVKYLANVWWPAREIIEAAVDKRFEIDASGRIILIENGGCPWKEHFFDIEVEKNIADDNITYILFSDSTNASWRVQAIPVDKMSSFENRMPLPAAWRGLRDDDLSKESGIPGGVFVHISGFIGGNLTREGAIAMARKALEIGEENPVKKAKLGN | soluble |
| MLHFIDSSESEDDLDELPRHLPPVIRRLAPLRHATSQYNLRSTGSTSSDSSTASENDKCSDFSSLKSRRASCIELNKEDEFKVMAADKLLMAMENMKHATSSQAIRWRTTSTESLPGIIKSNRRHSKGPLELIQGLMAKKAAVGRPAKFKNLGVVGPPTLISSTVSLHEISGFVRRDRFWGAETESLFSQFEV | not soluble |
| SNAMGKKIRTEEVDHLFEAILCLKNKEECYTFFEDVCTINELLSLSQRFEVAKMLTDKRTYLDISEKTGASTATISRVNRSLNYGNDGYEMVFSRMKEKETAGKTEE | soluble |
| MSPKSVVVTGSNRGLGFGLVQQFLKDPNVQHVIATARDVDKATALKGICDPRLHILQLSLGSDESIANFAEKVSEIVGESGLTLLINNAAVMLPYVTKQKPDRKVVLDLFESNTIGPMMLTQSLVPLIIKASKRQEGDTLSVSRGAIINIASEFLGSISENTSGSGEYKAMAYRMTKCAVNQFTKTLSIDLKDDHILTAGICPGMVQTDMSKGKGQLTIEESSSQILAAFNKLGATHNGGYFRRDLSIIPY | not soluble |
| MLLDVQHGQFGFIKGGIIAVIWFSLSRTINCGQLNLECFEFWLPTSQLLVLDVCLFDAFALEHHHHHH | not soluble |
| MAHHHHHHMKCEVDRPVTQNTERNGSEGNVAKNYMTHLYQFQNNEMKKIDASYFENKYLGLFFGASWCRYCVTFIQNINFFKKNFPFIEIIYIPFDKTYNDYVAFLKATDFYSLPFDNYLYICKKFNIKNLPSFMIIAPNNNVLVKDAVQLIKTDTYVNNFKSLVKNYTVHPSHFKIGNRFFDLFCA | soluble |
| KSTVEKSTVGQKVAIVREDTGTIAELAEKALGNMVDIVYAGSDLKEAEEAVKKEKAPAIIVIPKGFSQSLESGEKARLEIVWYLRGTGLSEAVSTGTISSLIESLKVQLASFLLNDPKKAQLLFDPLEIVQHTYLRGSLFKNHSPEAIMNVFYSQN | soluble |
| GPGSMLSTIKTRPQGPYCGDYFSIVEGRVDFPVDLDTFDISLTISGDVEECKNEPYVYDEVSGNVELTNAQDPGDCLGSILRRNQLTLMVTYHPDDDKISLDFGIAVVNLSPCP | not soluble |
| PVMADTIKLRIVETTDIHTNLMDYDYYKDKASDQIGLTRAATLVKQARAEVENSVLVDNGDLIQGSPMGDYMAAKGIKAGEVHPVYKAMNPLGYDVGNIGNHEFNYGLEFLKETINDAAFPYINANVFDAKTGQHLFTPYVIKEHSFKDTDGEAHTIKVGYIGFVPPQIMVWDKKNLEGKVTAADIKQTAEKLIPEMKAKGADVIVAIPHSGISTDEYQAGAENSVYYLTQVKGIDAIAFGHSHAVFPGKDFANVPGADIDKGTINGVTAVMPGRWGSHVGVMDLTLEKQQGRWAVTSGQSEARPIFDKANKKALVEADATMVQALQHDHQGTRDFVNQ | not soluble |
| MAPTSSIEIVLDKTTASVGEIVTASINIKNITNFSGCQLNMKYDPAVLQPVTSSGVAYTKSTMPGAGTILNSDFNLRQVADNDLEKGILNFSKAYVSLDDYRTAAAPEQTGTVAVVKFKVLKEETSSISFEDTTSVPNAIDGTVLFDWNGDRIQSGYSVIQPAVINLDMTKASYITMGYDKNAAEVGEIIKATVKINKITNFSGYQVNIKYDPTVLQAVNPKTGVAYTNSSLPTSGELLVSEDYGPIVQGVHKISEGILNLSRSYTALEVYRASESPEETGTLAVVGFKVLQKKATTVVFEDSETMPNGITGTTLFNWYGNRIQSGYFVIQPGEINSAPIATLEHHHHHH | soluble |
| MEKYLPILRNSPFFKGLSDNEILSILHCVNATVISKERASYIFRAGDSTEVMGLVVSGCVLVMQEDLWGHRNILSKCHAGDFFGEPYAASLGAVLNISVAADEDCEIIFLNVQRLLVTCQTACEHHQKLIRNLVSVLANKILILNDKITHVGKRTTRDKLLSYLSAESIRRSSLSFDIPFDRQQLADYLCIDRAAMSTEISKLQKEGFIKTNRNHFELIACNETDLQADK | not soluble |
| MSLSNYWLGLDCGGSWLKAGLYDGAGREVAVQRLPLHALSPQPGWVERDMTELWQQCASVISKLLAHTGVSGSQIRGLGISAQGKGLFLLDKSDRPLGKAILSSDRRAMEIVQRWQKEAVPQKLYPLTRQTLWTGHPVSLLRWVKENEPQRYAQIGCVMMTHDYLRWCLTGVKGCEESNISESNLYNMATGQYDPRLTEWLGISEIDSALSPVVGSAEICGEITAQAAAITGLAAGTPVVGGLFDVVSTALCAGIEDESTLNAVMGTWAVTSGIAHGLRDHEAHPYVYGRYVNDGQYIVHEASPTSSGNLEWFTAQWGDLSFDEINQAVASLPKAGSDLFFLPFLYGSNAGLEMTCGFYGMQALHNRAHLLQALYEGVVFSHMTHLNRMRERFTEVCALRVTGGPAHSDVWMQMLADVSGLRIELPQVEETGCFGAALAARVGTGVYRDFREAQRDLQHPVRTLLPDMTAHALYQRKYRQYQDLIEALQGYHARIKEHALEGHHHHHH | soluble |
| AGGEDRGDGEPVSVVTVRVQYLEDTDPFACANFPEPRRAPTCSLDGALPLGAQIPAVHRLLGAPLKLEDCALQVSPSGYYLDTELSLEEQREMLEGFYEEISKGRKPTLILRTQLSVRVNAILEKLYSSSGPELRRSLFSLKQIFQEDKDLVPEFVHSEGLSCLIRVGAAADHNYQSYILRALGQLMLFVDGMLGVVAHSDTIQWLYTLCASLSR | not soluble |
